In the supplement of paper PMC12042874:
± gives the uncertainty stated by the source.

Assay: amyloid nucleation score (Sup35N fusion, yeast selection) (log enrichment); library NNK3; higher = more nucleation; inactive = no reads after selection
Summary of the method: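 Peptides of 20 random codons, each fused to Sup35N, were expressed in psi-negative yeast. Cells were induced with 100 μM copper sulfate for 24 hours and grown 7 days at 30°C on medium lacking adenine and uracil, and plasmid inserts before and after selection were Illumina-sequenced. Nucleation scores are DiMSum log enrichments of output over input reads, centred on the mode score of non-aggregating sequences, and sequences under 100 input reads were excluded.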

Amyloid nucleation score, -0.05 ± 0.53:
IWTLVVCFLDVRRRR

Amyloid nucleation score, -0.349 ± 0.59:
ISHVEYLVLEPSMVYF

Amyloid nucleation score, 1.2 ± 0.14:
KLMPVIVTFNRYFFGQVMEE

Amyloid nucleation score, 1.63 ± 0.098:
KLMVNNQFISISINMSRCLF

Amyloid nucleation score, -0.432 ± 0.87:
KGETDFVLKP

Amyloid nucleation score, 1.45 ± 0.093:
ISNVIMWNWGLDFTNYYSDS

Amyloid nucleation score, 0.512 ± 0.29:
KNVTFTCHWTSKSLNMYYEE

Amyloid nucleation score, 0.382 ± 0.4:
ITKQEVLSLTIFRMAEGVQW

Amyloid nucleation score, 1.38 ± 0.083:
IVSMSCGWFRGYRVDDGYM

Amyloid nucleation score, 2.04 ± 0.09:
IVYMAATKLMVVNSLCNGRG

Amyloid nucleation score, 1.28 ± 0.15:
KIMSYHIHVMFLLDYMKDRS

Amyloid nucleation score, 1.08 ± 0.17:
KCAALLDPDSASGGRCEWNC

Amyloid nucleation score, 0.435 ± 0.35:
KINKREWRRFTVYSVFSHVS

Amyloid nucleation score, 1.46 ± 0.13:
KMTGLWLNVAVSDAFLEYDE

Amyloid nucleation score, 1.81 ± 0.061:
ISSNLLHAVWYSHEPGW

Amyloid nucleation score, -0.764 ± 1.8:
KGQYLSIGYNNFRG

Amyloid nucleation score, 0.416 ± 0.23:
IVTNDVCVFSVQYSRFVVRL

Amyloid nucleation score, -0.554 ± 0.63:
IRYRRHVNVEFKMYNWSCWC

Amyloid nucleation score, 2.09 ± 0.09:
IVKRFWLNGSFTFSFCNGNG

Amyloid nucleation score, -0.473 ± 1.3:
KLGIRPDRISVTWCLSNTTV

Amyloid nucleation score, 1.39 ± 0.079:
INWAKHDWGFNYFSCSICWV

Amyloid nucleation score, 1.14 ± 0.15:
IYGSASNYMFILGIDRSRWA

Amyloid nucleation score, -0.627 ± 1.4:
ISLVLVCYKASVITLWENQW

Amyloid nucleation score, inactive:
IMSSTGIFNLLRAESMCSLF, IMTVSLGGRNSDSDNLSCLD, INPFLHMVTSLIVEFRVLNC, INPMGITDSVCSTAASG, INRDYSVIVSGSYHHSSLTE, INSWIPWWLERKWSWHLASI, INYLFASRSKQEQLLDWRFS, INYSWFDLSMALTK, IPEYYKIRWRYGACRSCIVI, IPGYLLDHTAHK, IPHAARLCLMWIILWLI, IPIFWCYI, IPLLQCNIERYISLFVLVVG, IQDFSCFQRSEAVTIQGRS, IQIVSWQSAL, IQLWRTADGVYKVSGVNK, IQYIMTNLGPDYNRFEYM, IRGKYRLVVRDSLNVTPYRV, IRMYSIWREDVSRRKARCMW, IRNSVLWGHFIR, IRRFIKNIVYTYGHLLLEAH, IRSERTLDSATWDPFVVLKD, IRTSLSSVLDVCHTSNTI, IRVRTYSTKLPSLGH, ISAGFAGNN, ISDDICSVKVSGRRACHWIG, ISDLWLFATCSLK, ISDPRLGKVPLWDMSSIVYV, ISFGYQVYA, ISFRYHIYRSNCSQMNGRLT, ISGKCRIVAVESSCECSLSS, ISKSVLMMNTAKIPPPMF, ISMFDPLRCPWSNYGMCG, ISMLTVVSN, ISMSVYFFTIISSQFMFPIR, ISNSYH, ISQFHYLGRIST, ISQGFGCEFVFWFEEGKFFH, ISRLR, ITQLFSSLRADYAAQYYLGV, ITQWWVYIKNF, ITVSTGW, ITYFLWAVFYDGFSMSFFVA, IVDCLFK, IVECFYTL, IVLYQATCRSIKRVCVLETL, IVMIVNTGIA, IVNIKMNLWFYGNFMLWASS, IVPSNSARLLSVKALDLPIS, IVRPLLNFLCDLCRKVALGK, IVSWKVRSVSLKLLLSCAPD, IVTVLNSVLGKGFQQAPRRG, IVVCRKEDSAQRFSFVRLSD, IVVVFNPFGDELTYWVTQSM, IWCSRAGVRWVEMNVEQVYW, IWENNSIML, IWNSRSSCPECALATLETWA, IWQFRGSPSVYSARREWIDT, IYCVEERHFLNIYSRMSYYS, IYDRMGGHL, IYGVRYWV, IYLECIYNCFYVYKIMLHRV, IYSHSPLFLRRYGAIYESCR, IYTSGWINYSIARFACCIRW, IYYPIMCAAVAYLLSSRFRC, KAERVVRA, KANDMVFMGGGVLKLGRTLA, KCLMNFTVMRGASSCLEVPC, KCPRVDSA, KCRGGRETIRLRRSLWVFMV, KDIYYTSFILPDEWITG, KDLKMYRGF, KDLNENGRLFIIDPIIFSMF, KDMMWDVSRPYFYLVTYQIG, KDTRIQLVNNFICGDSLE, KDWQTIYQLRSVTFFDLLVV, KDYGLADGERHESM, KEAPIWRKKGQNLLLPVSGW, KEFAIESTVLFYTVLLKAAH, KERCLVSHCTTLCALFLRVI, KERIQCYMRLPRFIN, KFCLWYSGTNELDLCEPSMT, KFLPGCCFYMRIMSQVSLKN, KFWLKVHFYEHKWSWVMFEC, KFYAYSEDMVSQYI, KFYDSISRLQNERGPVIFPR, KGALRFITYSSMLVYYLNLG, KGCVRSGQIWLRCIWSQYP, KGFSFLRIRRMGLWTVSGYG, KGSDFSEFVAWRLLTAYRVP, KGTYGFAINHHYIA, KGYRINSNFNKFNKPLCSAI, KHFLQVVRSSNRTVSARFPL, KIDAN, KIFTWIRCNLSIFYSYGFKS, KINGIDSSGMCAISLIKKGA, KINRVSLLVLGH, KISSQIYMCRKTNSSDRTMM, KIYANHLL, KKGGLLLLNKYN, KLAKHH, KLDLQSSFLFLGSVHV, KLKFMPRLSHKWDRDQLRVH, KLNILKTGMLCYVPHLIAHI, KLPNYLYRLSLFPVTLVSTM, KLYESYASIRNNGCLRCSNS, KMCIDFEPELYNLFLLAFHQ, KNDSVKSKCVSIGVPVPLLV, KNLGIG, KNMWTGSFDVFRRWPISLKG, KNSASLFL, KPCSRVSWNVVQVV, KPWMVEAPFERA, KQRVASTTTVAPHPKNKD, KQTFKYTGVDHTVT, KRASMPVPGSSWLHQFKE

Amyloid nucleation score, 1.19 ± 0.079:
IYLIPITPIPVCYKIFLFGM

Amyloid nucleation score, 3 ± 0.054:
KLLLMGCRDVYFSYRIFM

Amyloid nucleation score, 0.035 ± 0.62:
KEFCVRPLYRFSVRMNIC

Amyloid nucleation score, -0.441 ± 1.4:
ISWVRFRAVFWMRMFEAH

Amyloid nucleation score, 0.851 ± 0.12:
IVSCLSCHLCLKCYSPLCVL

Amyloid nucleation score, -0.055 ± 1.1:
KMSLGLRCYSAYKEPLVQGE

Amyloid nucleation score, 1.06 ± 0.19:
IYCPYVGCVMSLGTGCM

Amyloid nucleation score, 0.627 ± 0.11:
KIWFCNWFANNYFMIANSST

Amyloid nucleation score, 2.61 ± 0.058:
ITVFNLILM

Amyloid nucleation score, 0.55 ± 0.24:
INIWSMYYMILLLFFIIYRL

Amyloid nucleation score, 0.627 ± 0.31:
IRFQSYRLASSSLVCDCVFC

Amyloid nucleation score, 2.4 ± 0.054:
INFLCTDAFTMKFTGAYGKH

Amyloid nucleation score, 1.42 ± 0.14:
ISRVCSNFLGLDVTFLMLLT

Amyloid nucleation score, 0.086 ± 0.56:
IRSRTVTWQQWQLHSRNGRS

Amyloid nucleation score, 3.17 ± 0.082:
KFHIFFCSFCVPPE

Amyloid nucleation score, -0.385 ± 1.1:
IRALRKRDEDGSLLTGTLFC

Amyloid nucleation score, -0.122 ± 0.38:
KNSLDALFYVTALFCTLSGD

Amyloid nucleation score, 0.663 ± 0.13:
KDNKGMGRMFSNILFFTISL

Amyloid nucleation score, 0.676 ± 0.21:
KFFYCERVLSGNRVKRHERI
